Patent US20260167721A1 (ABLEXIS, published 2026)
Each block holds one binder with its values, some of them ahead of it.

Key:
[1] = target: T1, recombinant human CD3 epsilon/delta heterodimer (human, UniProt P07766 23-126; P04234 22-105); experiment: Octet BLI, mAb on FAB2G sensor, hCD3 E/D 200-50 nM; R^2 0.96
T1 construct: Recombinant protein in solution (200-50 nM) in the Octet assay; also called hCD3 E/D; human CD3E/D
Description: Samples were evaluated by flow cytometry analysis against Jurkat and human Pan-T cells (FIG. 1B) as well as by Octet against recombinant human CD3 proteins to evaluate apparent affinities and binding off-rates (Table 6, infra).

[2] = target: T2, recombinant human CD3 epsilon/gamma heterodimer (human, UniProt P07766 23-126; P09693 23-116); experiment: Octet BLI, mAb on FAB2G sensor, hCD3 E/G 200-50 nM; R^2 0.34
T2 construct: Recombinant protein in solution (200-50 nM) in the Octet assay; also called hCD3 E/G

[3] = target: T3, recombinant CD3 proteins (UniProt P07766 23-126); experiment: Octet BLI, recombinant CD3; Full R^2 0.989
T3 construct: elsewhere it uses human CD3 E/D and E/G heterodimers

[4] = target: T3, recombinant CD3 proteins; experiment: Octet BLI, recombinant CD3; Full R^2 0.814*
[5] = target: T3, recombinant CD3 proteins; experiment: Octet BLI, recombinant CD3; Full R^2 0.985
[6] = target: T3, recombinant CD3 proteins; experiment: Octet BLI, recombinant CD3; Full R^2 0.986

T1 sequence (P07766 23-126, stated change not applied, chain 1 of 2): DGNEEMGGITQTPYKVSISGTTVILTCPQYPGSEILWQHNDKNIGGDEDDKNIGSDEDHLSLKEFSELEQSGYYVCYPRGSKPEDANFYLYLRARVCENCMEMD
T1 sequence (P04234 22-105, stated change not applied, chain 2 of 2): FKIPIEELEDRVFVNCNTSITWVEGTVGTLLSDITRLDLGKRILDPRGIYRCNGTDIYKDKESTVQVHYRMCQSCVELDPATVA
T3 sequence (P07766 23-126): as the sequence (P07766 23-126, stated change not applied, chain 1 of 2) above
T2 sequence (P07766 23-126, chain 1 of 2): as the sequence (P07766 23-126, stated change not applied, chain 1 of 2) above
T2 sequence (P09693 23-116, chain 2 of 2): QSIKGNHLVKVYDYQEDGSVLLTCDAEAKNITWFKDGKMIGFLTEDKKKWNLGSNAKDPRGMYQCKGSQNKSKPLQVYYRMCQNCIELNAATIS

- Kd [4]: 1210 nM
- koff [4]: 0.0216 s⁻¹
- kon [4]: 17900 M⁻¹ s⁻¹
B3: CD3 × CD33-BspAb121 (bispecific antibody)
chain 1: QTVVTQEPSLTVSPGGTVTLTCASSTGAVTSGYYPNWFQQKPGQAPRALIYSTSNKHSWTPARFSGSLLGGKAALTLSGVQPEDEAEYYCLLYYGGAYVFGCGTKVTVLGGGGSGGGGSGGGGSGGGGSEVQLVESGGGLVKPGGSLRLSCAASGFTFSSYSMNWVRQAPGKCLEWVSSISRSGTYIYYADSVKGRFTISRDNAKNSLYLQMNSLRAEDTAVYYCARERWELLYFDYWGQGTLVTVSSDKTHTCPPCPAPEFEGGPSVFLFPPKPKDTLMISRTPEVTCVVVDVSHEDPEVKFNWYVDGVEVHNAKTKPREEQYNSTYRVVSVLTVLHQDWLNGKEYKCKVSNKALPASIEKTISKAKGQPREPQVYTLPPCREEMTKNQVSLWCLVKGFYPSDIAVEWESNGQPENNYKTTPPVLDSDGSFFLYSKLTVDKSRWQQGNVFSCSVMHEALHNHYTQKSLSLSPGK
chain 2: EVQLVQSGAEVKKPGSSVKVSCKASGYTITDSNIHWVRQAPGQSLEWIGYIYPYNGGTDYNQKFKNRATLTVDNPTNTAYMELSSLRSEDTAFYYCVNGNPWLAYWGQGTLVTVSSASTKGPSVFPLAPSSKSTSGGTAALGCLVKDYFPEPVTVSWNSGALTSGVHTFPAVLQSSGLYSLSSVVTVPSSSLGTQTYICNVNHKPSNTKVDKRVEPKSCDKTHTCPPCPAPEFEGGPSVFLFPPKPKDTLMISRTPEVTCVVVDVSHEDPEVKFNWYVDGVEVHNAKTKPREEQYNSTYRVVSVLTVLHQDWLNGKEYKCKVSNKALPASIEKTISKAKGQPREPQVCTLPPSREEMTKNQVSLSCAVKGFYPSDIAVEWESNGQPENNYKTTPPVLDSDGSFFLVSKLTVDKSRWQQGNVFSCSVMHEALHNRFTQKSLSLSPGK
chain 3: DIQLTQSPSTLSASVGDRVTITCRASESLDNYGIRFLTWFQQKPGKAPKLLMYAASNQGSGVPSRFSGSGSGTEFTLTISSLQPDDFATYYCQQTKEVPWSFGQGTKVEVKRTVAAPSVFIFPPSDEQLKSGTASVVCLLNNFYPREAKVQWKVDNALQSGNSQESVTEQDSKDSTYSLSSTLTLSKADYEKHKVYACEVTHQGLSSPVTKSFNRGEC

- Kd [5]: 69 nM
- koff [5]: 0.0189 s⁻¹
- kon [5]: 274000 M⁻¹ s⁻¹
B4: CD3 × CD33-BspAb120 (bispecific antibody)
chain 1: NFMLTQPHSVSESPGKTVAISCTRSSGSIASNYVQWYQQRPGSSPTAVIYEDNQRPSGVPDRFSGSIDSSSNSAFLTISGLKTEDEADYYCQSYDSSNRVFGCGTKLTVLGGGGSGGGGSGGGGSGGGGSEVQLVESGGGLVKPGGSLRLSCAASGFTFSSYSMNWVRQAPGKCLEWVSSISRSSGYIFYADSVKGRFTISRDNAKNSLYLQMNSLRAEDTAVYYCVRERVGAGFDYWGQGTLVTVSSDKTHTCPPCPAPEFEGGPSVFLFPPKPKDTLMISRTPEVTCVVVDVSHEDPEVKFNWYVDGVEVHNAKTKPREEQYNSTYRVVSVLTVLHQDWLNGKEYKCKVSNKALPASIEKTISKAKGQPREPQVYTLPPCREEMTKNQVSLWCLVKGFYPSDIAVEWESNGQPENNYKTTPPVLDSDGSFFLYSKLTVDKSRWQQGNVFSCSVMHEALHNHYTQKSLSLSPGK
chain 2: EVQLVQSGAEVKKPGSSVKVSCKASGYTITDSNIHWVRQAPGQSLEWIGYIYPYNGGTDYNQKFKNRATLTVDNPTNTAYMELSSLRSEDTAFYYCVNGNPWLAYWGQGTLVTVSSASTKGPSVFPLAPSSKSTSGGTAALGCLVKDYFPEPVTVSWNSGALTSGVHTFPAVLQSSGLYSLSSVVTVPSSSLGTQTYICNVNHKPSNTKVDKRVEPKSCDKTHTCPPCPAPEFEGGPSVFLFPPKPKDTLMISRTPEVTCVVVDVSHEDPEVKFNWYVDGVEVHNAKTKPREEQYNSTYRVVSVLTVLHQDWLNGKEYKCKVSNKALPASIEKTISKAKGQPREPQVCTLPPSREEMTKNQVSLSCAVKGFYPSDIAVEWESNGQPENNYKTTPPVLDSDGSFFLVSKLTVDKSRWQQGNVFSCSVMHEALHNRFTQKSLSLSPGK
chain 3: DIQLTQSPSTLSASVGDRVTITCRASESLDNYGIRFLTWFQQKPGKAPKLLMYAASNQGSGVPSRFSGSGSGTEFTLTISSLQPDDFATYYCQQTKEVPWSFGQGTKVEVKRTVAAPSVFIFPPSDEQLKSGTASVVCLLNNFYPREAKVQWKVDNALQSGNSQESVTEQDSKDSTYSLSSTLTLSKADYEKHKVYACEVTHQGLSSPVTKSFNRGEC

Second part, the binder before the results:

B1: ABL-CD3-13 (antibody, V domains shown)
VH: EVQLVESGGGLVQPGGSLRLSCAASGFTFSNYWMSWVRQAPGKGLEWVANIKEDGSEKYYVDSVKGRFTISRDNAKNSLYLQMNSLTAEDTSVYYCARERRTGYFDYWGQGTLVTVSS
VL: DIQMTQSPSTLSASVGDRVTITCRASQSISNWLAWYQQKPGKAPNLLIYKASSLESGVPSRFSGSGSGTEFTLTISSLQPDDFANYYCQQYKSYSWTFGQGTKVEIK
notes: Chimeric hybridoma mAb: human V, CH1, upper hinge; mouse middle hinge, CH2, CH3
- Kd [1]: 23.4 nM
- Response [1]: 0.08
- koff [1]: 0.000728 s⁻¹
- kon [1]: 31200 M⁻¹ s⁻¹
- Kd [2]: < 0.001 nM
- koff [2]: < 1e-07 s⁻¹
- kon [2]: 26700 M⁻¹ s⁻¹

B2: CD3 × CD33-BspAb118 (bispecific antibody)
chain 1: FMLTQPHSVSESPGKTVTISCTRSSGSIASNYVQWYQQRPGSSPTTVIYEDNQRPSGVPDRFSGSIDSSSNSASLTISGLQTEDEADYYCQSYDSSNRVFGCGTKLTVLGGGGSGGGGSGGGGSGGGGSEVQLVESGGGLVKPGGSLRLSCVASGFTFSRYSMNWVRQAPGKCLEWVSSISSSSRYTYYADSLKGRFIMSRDNAKNSLFLQMNSLRAEDTAVYYCARNLYNALDYWGQGTLVTVSSDKTHTCPPCPAPEFEGGPSVFLFPPKPKDTLMISRTPEVTCVVVDVSHEDPEVKFNWYVDGVEVHNAKTKPREEQYNSTYRVVSVLTVLHQDWLNGKEYKCKVSNKALPASIEKTISKAKGQPREPQVYTLPPCREEMTKNQVSLWCLVKGFYPSDIAVEWESNGQPENNYKTTPPVLDSDGSFFLYSKLTVDKSRWQQGNVFSCSVMHEALHNHYTQKSLSLSPGK
chain 2: EVQLVQSGAEVKKPGSSVKVSCKASGYTITDSNIHWVRQAPGQSLEWIGYIYPYNGGTDYNQKFKNRATLTVDNPTNTAYMELSSLRSEDTAFYYCVNGNPWLAYWGQGTLVTVSSASTKGPSVFPLAPSSKSTSGGTAALGCLVKDYFPEPVTVSWNSGALTSGVHTFPAVLQSSGLYSLSSVVTVPSSSLGTQTYICNVNHKPSNTKVDKRVEPKSCDKTHTCPPCPAPEFEGGPSVFLFPPKPKDTLMISRTPEVTCVVVDVSHEDPEVKFNWYVDGVEVHNAKTKPREEQYNSTYRVVSVLTVLHQDWLNGKEYKCKVSNKALPASIEKTISKAKGQPREPQVCTLPPSREEMTKNQVSLSCAVKGFYPSDIAVEWESNGQPENNYKTTPPVLDSDGSFFLVSKLTVDKSRWQQGNVFSCSVMHEALHNRFTQKSLSLSPGK
chain 3: DIQLTQSPSTLSASVGDRVTITCRASESLDNYGIRFLTWFQQKPGKAPKLLMYAASNQGSGVPSRFSGSGSGTEFTLTISSLQPDDFATYYCQQTKEVPWSFGQGTKVEVKRTVAAPSVFIFPPSDEQLKSGTASVVCLLNNFYPREAKVQWKVDNALQSGNSQESVTEQDSKDSTYSLSSTLTLSKADYEKHKVYACEVTHQGLSSPVTKSFNRGEC
- Kd [3]: 1.91 nM
- koff [3]: 0.000767 s⁻¹
- kon [3]: 403000 M⁻¹ s⁻¹

B5: CD3 × CD33-BspAb119 (bispecific antibody)
chain 1: NFMLTQPHSVSESPGKTVTISCTRSSGSIASNYVQWYQQRPGSSPTTVIYEDNQRPSGVPDRFSGSIDSSSNSASLTISGLKTEDEADYYCQSYDSSNRVFGCGTKLTVLGGGGSGGGGSGGGGSGGGGSEVQVAESGGGLVKPGGSLRLSCAASGFTFSRYSMNWVRQAPGKCLEWVSSISSSGSYTYYADSVKGRFTISRDNAKNSLYLQMNSLRAEDTAVYYCVRERGKGAGMDVWGQGTTVTVSSDKTHTCPPCPAPEFEGGPSVFLFPPKPKDTLMISRTPEVTCVVVDVSHEDPEVKFNWYVDGVEVHNAKTKPREEQYNSTYRVVSVLTVLHQDWLNGKEYKCKVSNKALPASIEKTISKAKGQPREPQVYTLPPCREEMTKNQVSLWCLVKGFYPSDIAVEWESNGQPENNYKTTPPVLDSDGSFFLYSKLTVDKSRWQQGNVFSCSVMHEALHNHYTQKSLSLSPGK
chain 2: EVQLVQSGAEVKKPGSSVKVSCKASGYTITDSNIHWVRQAPGQSLEWIGYIYPYNGGTDYNQKFKNRATLTVDNPTNTAYMELSSLRSEDTAFYYCVNGNPWLAYWGQGTLVTVSSASTKGPSVFPLAPSSKSTSGGTAALGCLVKDYFPEPVTVSWNSGALTSGVHTFPAVLQSSGLYSLSSVVTVPSSSLGTQTYICNVNHKPSNTKVDKRVEPKSCDKTHTCPPCPAPEFEGGPSVFLFPPKPKDTLMISRTPEVTCVVVDVSHEDPEVKFNWYVDGVEVHNAKTKPREEQYNSTYRVVSVLTVLHQDWLNGKEYKCKVSNKALPASIEKTISKAKGQPREPQVCTLPPSREEMTKNQVSLSCAVKGFYPSDIAVEWESNGQPENNYKTTPPVLDSDGSFFLVSKLTVDKSRWQQGNVFSCSVMHEALHNRFTQKSLSLSPGK
chain 3: DIQLTQSPSTLSASVGDRVTITCRASESLDNYGIRFLTWFQQKPGKAPKLLMYAASNQGSGVPSRFSGSGSGTEFTLTISSLQPDDFATYYCQQTKEVPWSFGQGTKVEVKRTVAAPSVFIFPPSDEQLKSGTASVVCLLNNFYPREAKVQWKVDNALQSGNSQESVTEQDSKDSTYSLSSTLTLSKADYEKHKVYACEVTHQGLSSPVTKSFNRGEC
- Kd [6]: 21.7 nM
- koff [6]: 0.00688 s⁻¹
- kon [6]: 317000 M⁻¹ s⁻¹
